From the supplement of paper PMC10567573

B1: KLHL13 (parent)
chain: TGEFLKLPFERLAFVLSSNSLKHC

Variants of: B1
Test: protein stability index of a GFP-peptide fusion (GPS, HEK-293T) (PSI 1-6); higher = more stable
Conditions: c terminus: a fixed tail appended
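Further: lentivirally expressed fusions sorted by FACS into six bins by GFP to DsRed ratio, PSI derived from sequencing read proportions per bin multiplied by bin number.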

Protein stability index: each site, then its substitutions
S18: N 1.98; W 2.81; P 2.64; L 3.02; D 2.42; A 1.35; Q 1.61; E 2.37; Y 2.79
F14: A 1.42; C 1.95; E 2.33; P 2.69; M 2.74; K 1.79; W 3.04; L 2.31; Q 1.66; H 1.8; T 2.21; S 2.21; Y 2.36; G 2.54; N 2.33
S20: P 2.4; H 1.49; G 2.59; N 3.25; D 2.29; C 3.52; I 2.7; F 2.55; L 3.05; R 1.87; M 3.42
F9: M 3.01; T 1.65; Q 2.6; R 1.65; W 3.18; N 1.8; V 2.23; G 2.18; C 1.82; P 2.04; I 3.04; Y 2.7; L 3.5; A 2.33; K 2.56; S 2.07
L16: R 2.21; I 2.89; V 3.18; W 2.23; E 2.42; S 2.68; D 2.37; M 2.25; G 2.23; Q 2.24; A 1.74
K22: D 2.77; A 2.4; R 2.48; M 3.25; G 2.18; Y 1.96; C 4.71; P 3.24; S 4.04; L 3.44; N 4.57
E3: G 4.77; Y 3.14; R 2.35; H 2.67; Q 4.44
R11: S 3.23; M 3.39; K 3.47; F 3.1; P 3.17; C 2.12; D 2.08; H 1.62; E 2.48; G 2.54; A 3.93; V 3.99
K6: T 2.73; P 2.01; D 1.38; A 3.83; S 3.28
C24: D 2.13; K 1.61; Q 1.6; S 1.76; W 1.03; R 2.4; A 1.75; Y 3.19; M 2.65; T 2.1; L 2.62; G 1.9; V 2.76; H 2.56; I 4.16
A13: D 2.08; C 2.41; I 3.35; K 1.98; P 3.04; H 1.72; T 2.76; N 1.93; Q 2.26; F 1.67; Y 3.93; G 1.6
E10: C 2.48; G 2.42; Q 2.03; S 2.96; T 2.76; L 2.88; Y 3.3; R 4.24; D 3.16
F4: P 1.62; Y 2.4; A 2.92; E 1.42; R 1.13
G2: H 3.72; K 2.12; F 3.56; N 2.52
L21: Q 1.91; K 1.26; C 3.31; A 2.92; P 2.39; G 1.75; E 2.45; V 1.72; D 2.79; F 1.42
L5: N 1.52; T 2.54; H 1.78; Q 2.06; A 1.6; K 1.85; D 2.48; Y 1.8; R 2.16; C 2.26
T1: Q 2.82; R 3.17; L 3.16
L7: W 4.29; T 3.88; A 1.73; K 1.86
